One substance from patent US20070150973A1 can be followed below.

For test [1], the target named is FKBP×3-p65 fusion protein (human) (UniProt P62942). Nature of the test: cell-based or functional assay.
Test [2] concerns the target FKBP×3-VP16 fusion protein (human; Herpes Simplex Virus) (UniProt P62942). The test is described as follows: cell-based or functional assay.

With “ZFHD1-FKBP×3 fusion protein (from UniProt P08046 333-390; P14859 378-439; P62942 2-108; P62942 2-108; P62942 2-108)”, the FK1012 concentration at peak SEAP activation in test [1] and in test [2] was 100 nM throughout.
